Assay results: PMC7111020 (2007)
Blank lines part the entries; values can stand above or below the binder they belong to.

Assays:
[1] = target: the molecule itself; test: sedimentation equilibrium analytical ultracentrifugation
[2] = target: T1, mTIM-1 (Mus musculus, UniProt Q5QNS5); test: SPR
T1 chain: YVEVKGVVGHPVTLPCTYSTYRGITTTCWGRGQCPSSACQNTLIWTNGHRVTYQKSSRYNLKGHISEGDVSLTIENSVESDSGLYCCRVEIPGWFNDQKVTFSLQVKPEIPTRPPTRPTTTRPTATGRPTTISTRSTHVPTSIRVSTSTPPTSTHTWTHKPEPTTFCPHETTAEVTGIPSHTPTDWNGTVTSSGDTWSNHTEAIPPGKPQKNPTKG

B1: mTIM-2 20-129 (protein)
chain: ESHTAVQGLAGHPVTLPCIYSTHLGGIVPMCWGLGECRHSYCIRSLIWTNGYTVTHQRNSLYQLKGNISEGNVSLTIENTVVGDGGPYCCVVEIPGAFHFVDYMLEVKPE
Kd [1]: ~300 µM

Kd [2]: ~0.6 µM
B2: mTIM-1 ECD (protein)
chain: T1 chain
